Measured values from publication doi:10.1101/2022.09.27.509796 (bioRxiv, 2022).

Target: T1, ΔN100 y-mtRNAP (yeast mitochondrial RNA polymerase, RPO41) (Saccharomyces cerevisiae, UniProt P13433 101-1351)
T1 sequence (looked up): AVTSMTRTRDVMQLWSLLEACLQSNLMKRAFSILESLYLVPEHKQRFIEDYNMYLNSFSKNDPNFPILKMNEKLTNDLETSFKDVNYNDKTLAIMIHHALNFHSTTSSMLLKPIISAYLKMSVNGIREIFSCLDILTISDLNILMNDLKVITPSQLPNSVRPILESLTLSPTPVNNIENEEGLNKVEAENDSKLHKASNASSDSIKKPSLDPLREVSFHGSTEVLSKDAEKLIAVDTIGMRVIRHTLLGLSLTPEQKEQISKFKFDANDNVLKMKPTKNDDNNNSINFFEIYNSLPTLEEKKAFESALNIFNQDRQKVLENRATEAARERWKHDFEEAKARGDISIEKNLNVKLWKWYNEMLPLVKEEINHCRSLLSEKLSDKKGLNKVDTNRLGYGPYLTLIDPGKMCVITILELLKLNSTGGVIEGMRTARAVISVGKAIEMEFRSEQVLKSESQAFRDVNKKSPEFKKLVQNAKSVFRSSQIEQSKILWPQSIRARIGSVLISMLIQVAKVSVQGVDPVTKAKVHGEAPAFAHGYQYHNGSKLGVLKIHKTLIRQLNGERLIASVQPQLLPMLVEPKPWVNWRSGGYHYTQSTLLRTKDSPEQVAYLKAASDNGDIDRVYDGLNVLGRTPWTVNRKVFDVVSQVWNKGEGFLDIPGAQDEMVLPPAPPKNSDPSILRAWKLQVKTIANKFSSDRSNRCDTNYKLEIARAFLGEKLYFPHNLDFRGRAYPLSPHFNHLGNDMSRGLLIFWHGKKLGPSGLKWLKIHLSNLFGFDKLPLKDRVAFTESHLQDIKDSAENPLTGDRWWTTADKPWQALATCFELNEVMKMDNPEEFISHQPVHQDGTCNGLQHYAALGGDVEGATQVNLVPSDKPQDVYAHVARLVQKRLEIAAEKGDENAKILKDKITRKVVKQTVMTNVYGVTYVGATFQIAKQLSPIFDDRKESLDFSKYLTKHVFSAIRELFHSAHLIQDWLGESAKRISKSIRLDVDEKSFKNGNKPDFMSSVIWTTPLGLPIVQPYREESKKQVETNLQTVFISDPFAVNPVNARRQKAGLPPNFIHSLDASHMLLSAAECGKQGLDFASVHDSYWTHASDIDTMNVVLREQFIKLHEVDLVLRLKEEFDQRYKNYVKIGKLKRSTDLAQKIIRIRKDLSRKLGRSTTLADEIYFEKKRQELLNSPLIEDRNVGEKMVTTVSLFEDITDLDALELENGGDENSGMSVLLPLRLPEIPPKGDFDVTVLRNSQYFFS
Experiment: cryo-EM structure

B1: MTF1 (yeast mitochondrial transcription factor) (natural protein, Saccharomyces cerevisiae)
chain: SVPIPGIKDISKLKFFYGFKYLWNPTVYNKIFDKLDLTKTYKHPEELKVLDLYPGVGIQSAIFYNKYCPRQYSLLEKRSSLYKFLNAKFEGSPLQILKRDPYDWSTYSNLIDEERIFVPEVQSSDHINDKFLTVANVTGEGSEGLIMQWLSCIGNKNWLYRFGKVKMLLWMPSTTARKLLARPGMHSRSKCSVVREAFTDTKLIAISDANELKGFDSQCIEEWDPILFSAAEIWPTKGKPIALVEMDPIDFDFDVDNWDYVTRHLMILKRTPLNTVMDSLGHGGQQYFNSRITDKDLLKKCPIDLTNDEFIYLTKLFMEWPFKPDILMDFVDMYQTEHSG
- binding result: binds
